Experiments:
[1] = rat, in vivo
Source text: A prerequisite for the intravenous application of the chitinase is insight in its clearance. In the blood stream the most predominant isozyme is the 50 kDa protein. In tissue predominantly a 39 kDa isozyme is encountered. This appears to be formed by uptake of 50 kDa protein followed by proteolytic cleavage to a 39 kDa form that is remarkably stable in the lysosomal environment. […] Clearance is not a very rapid process as monitored by the disappearance of activity of human chitotriosidase in the blood stream of intravenously injected rats, the half life being about one hour. Only minor amounts of chitotriosidase are daily excreted into the urine. It is conceivable that some enzyme is efficiently recaptured by proximal tube epithelial cells since kidney is found to be extremely rich in ‘lysosomally processed’ 39 kDa enzyme.

[2] = hydrolysis of 4-methylumbelliferyl-chitobioside versus 4-methylumbelliferyl-chitotrioside; format: biochemical; conditions: 4-methylumbelliferyl substrates
Source text: Purified 50 kDa and 39 kDa tissue chitotriosidases, and 50 kDa and 39 kDa chitozymes produced by recombinant DNA technology, are able to hydrolyse 4-methylumbelliferyl-chitotrioside and 4-methylumbelliferyl-chitobioside, the ratio of chitobioside activity to chitotrioside activity being about 0.7. Furthermore, p-nitrophenyl-chitotrioside and p-nitrophenyl-chitobioside are also efficiently hydrolyzed.

Mucor mucedo = experiment: fungicidal effect on hyphal growth; format: cell-based; conditions: for effect on hyphal growth, microscopical analysis: enzyme solution in 0.15 M NaCl pipetted on hyphal tips
Method: To test whether human chitotriosidase can exert an antifungal action, a chitinous fungus (Mucor mucedo) was grown on plates (containing malt extract, peptone, glucose and agar) under a Cellophane membrane in order to keep the hyphae flat against the agar surface (see ref.16). Individual sectors were cut out and mounted on microscope slides. Purified chitozyme 50 and chitozyme 39 were dialysed against 0.15 M sodium chloride. Samples of enzyme-containing solutions, and 0.15 M NaCl were pipetted on the hyphal tips. […] Application of saline had no effect. Negative effects on hyphal growth were detectable using chitozyme solutions with a concentration of enzyme as little as 0.005 mg/ml.

a variety of proteases = format: in vitro ADME
Method: Successful proteolytic cleavage is only accomplished after denaturation of the enzyme, e.g. after heating in the presence of sodium dodecylsulphate. […] In analogy, chitotriosidase is stable at 37° C. in macrophage-conditioned medium that contains large quantities of various other secreted lytic enzymes.

[3] = system: cell wall suspension of Micrococcus lysodeikticus; experiment: lysozyme activity towards bacterial cell wall suspension; format: biochemical
[4] = format: in vitro ADME
Method: Production of the chitozymes via conventional technology in insect cells, plant cells, or vertebrate cells should be possible. Finally, transgenic animals could be envisioned as producers of large quantities of chitozymes in their milk for the applications described above. […] Successful proteolytic cleavage is only accomplished after denaturation of the enzyme, e.g. after heating in the presence of sodium dodecylsulphate. […] In analogy, chitotriosidase is stable at 37° C. in macrophage-conditioned medium that contains large quantities of various other secreted lytic enzymes.

[5] = chitin azure degradation (release of soluble azure at 550 nm); format: biochemical; conditions: chitin azure 10 mg/ml, citrate/phosphate buffer pH 5.2; control chitinase from Serratia marcescens
Method: Chitin azure (Sigma) suspended in citrate/phosphate buffer (pH 5.2) at a final concentration of 10 mg/ml was used to monitor chitinase activity. Chitin degradation was detected spectrophotometrically at 550 nm by determination of release of soluble azure (18). Chitinase from Serratia marcescens (Sigma) was used as control. […] See for example ref.18.

[6] = format: physicochemical

Substance	clearance from the circulation [1]	ratio of chitobioside activity to chitotrioside activity [2]	effect on hyphal growth, microscopical analysis (Mucor mucedo)	stability against a variety of proteases (a variety of proteases)	further results
chitozyme 39: recombinant human chitotriosidase isozyme of 39 kDa, encoded by chi.39 cDNA (SEQ ID NO:6), produced by transfected COS cells	not immediately cleared	about 0.7	immediate cessation of hyphal growth	extremely stable	–
chitotriosidase: human chitinase produced by macrophages, named chitotriosidase; isoform not specified at the place	–	–	–	–	activity towards Micrococcus lysodeikticus cell wall suspension (lysozyme activity) [3]: No significant activity; loss of enzyme activity on prolonged incubation [4]: does not result in detectable loss of enzyme activity; stability in macrophage-conditioned medium [4]: stable; chitinase activity, related to hydrolysis of 4-methyl-umbelliferyl-chitotrioside [5]: comparable to that of the bacterial chitinase; enzyme activity after spotting on filter paper ([6]; storage for several days at room temperature): enzyme activity is still recovered; loss of enzyme activity upon storage and freeze-thaw ([6]; −20 or −70° C., repeated cycles of freezing and thawing): No loss of enzyme activity; effect on fungal growth (Mucor mucedo; Mucor species): inhibited growth
chitozyme: recombinant chitotriosidase, isozyme not specified at the place	–	–	–	–	stability when added to cow milk [4]: completely stable
chitozyme 50: recombinant human chitotriosidase isozyme of 50 kDa, encoded by chi.50 cDNA (SEQ ID NO:4), produced by transfected COS cells	not immediately cleared	about 0.7	immediate cessation of hyphal growth	extremely stable	half life in the circulation, compared between isozymes [1]: somewhat longer than that of the 39 kDa enzyme
tissue chitotriosidase: chitotriosidase purified from Gaucher disease spleen, isoform not specified	not immediately cleared	–	–	–	–
50 kDa tissue chitotriosidase: 50 kDa chitotriosidase purified from Gaucher disease spleen	–	about 0.7	–	–	–

From patent publication US6896884B2, “Human chitinase, its recombinant production, its use for decomposing chitin, its use in therapy or prophylaxis against infection diseases” (Universiteit va Amsterdam, priority 1995, dated 2005)
